Laboratory results published in US20030148383A1, “Methods for identifying proteins with N-terminal N-myristoylation” (Boehringer Ingelheim International GmbH, priority 2001, published 2003).
Read-outs that look alike come from different tables or passages of the source.

Experiments:
[1] = molecular target: T1, Myristoyl-CoA:protein N-myristoyltransferase from Saccharomyces cerevisiae (Saccharomyces cerevisiae, UniProt P14743); details: cited from earlier work; for Km: octapeptide substrate
T1 sequence (P14743 1-455): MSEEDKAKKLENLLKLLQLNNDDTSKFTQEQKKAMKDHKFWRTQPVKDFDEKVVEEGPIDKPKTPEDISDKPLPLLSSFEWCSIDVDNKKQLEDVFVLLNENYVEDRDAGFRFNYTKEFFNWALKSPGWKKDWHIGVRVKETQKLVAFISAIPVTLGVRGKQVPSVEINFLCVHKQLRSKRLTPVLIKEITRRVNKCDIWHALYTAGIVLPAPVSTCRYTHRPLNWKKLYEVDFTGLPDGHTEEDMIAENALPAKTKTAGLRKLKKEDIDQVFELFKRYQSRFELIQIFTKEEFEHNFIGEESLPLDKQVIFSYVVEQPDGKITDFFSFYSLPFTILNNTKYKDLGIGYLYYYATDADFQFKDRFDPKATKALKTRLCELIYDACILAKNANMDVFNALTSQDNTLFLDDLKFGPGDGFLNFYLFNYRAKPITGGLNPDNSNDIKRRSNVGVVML

[2] = molecular target: T1, Myristoyl-CoA:protein N-myristoyltransferase from Saccharomyces cerevisiae; test: kinetic measurements of substrate specificity of yeast NMT with octapeptides; type: biochemical; details: ratio of the Km, Rocque et al. 1993 data
Text: The enzyme Myristoyl-CoA:protein N-myristoyltransferase from Saccharomyces cerevisiae has been subject to extensive kinetic measurements to examine its substrate specificity (Towler, D. A., et al., Annu. Rev. Biochem. 57:69-99 (1988)). […] However, the relation of the affinities, certifying which substrates are binding better than others, should remain constant.

[3] = earlier publication, Towler et al. 1988

Sequence	Km ([1]; Rocque et al. 1993) [µM]	Km [1, 3] [µM]	higher affinity (lower Km) than GSSKSKPK [2] [fold]	ability to become myristoylated ([1]; mutation of octapeptide GNAAAARR to GPAAAARR, Towler et al. 1988)
GNAAAARR [octapeptide substrate of yeast NMT, derived from cAMP-dependent protein kinase]	31	60	3	–
GPAAAARR [octapeptide, mutation of […] with proline on position 2]	–	–	–	loss of the ability to become myristoylated
GSSKSKPK [octapeptide substrate of yeast NMT]	105	40	–	–
